B1: INTS4 (parent)
chain: YSSGEFSSGRKWGDDAPKEEVDTG
B2: CAMK2A (parent)
chain: CIQQILEAVLHCHQMGVVHRDLKP
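Further: lentivirally expressed fusions sorted by FACS into six bins by GFP to DsRed ratio, PSI derived from sequencing read proportions per bin multiplied by bin number.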

The first data set covers variants of B1. Put plainly: protein stability index of a GFP-peptide fusion (GPS, HEK-293T) (PSI 1-6); higher = more stable. To be noted: c terminus: a fixed tail appended.
For the variant YSSAEFSSGRKWGDDAPKEEVDTG, the protein stability index is 3.56.

Regarding YSSCEFSSGRKWGDDAPKEEVDTG, the protein stability index was 3.61.

NSSGEFSSGRKWGDDAPKEEVDTG: the protein stability index came to 5.22.

As to DSSGEFSSGRKWGDDAPKEEVDTG, the protein stability index is 5.8.

With WSSGEFSSGRKWGDDAPKEEVDTG, the protein stability index stood at 4.52.

VSSGEFSSGRKWGDDAPKEEVDTG: the protein stability index amounted to 5.8.

HSSGEFSSGRKWGDDAPKEEVDTG: the protein stability index was determined as 5.51.

ASSGEFSSGRKWGDDAPKEEVDTG: the protein stability index was 4.93.

With LSSGEFSSGRKWGDDAPKEEVDTG, the protein stability index was 5.79.

In the case of CSSGEFSSGRKWGDDAPKEEVDTG, the protein stability index is 3.87.

KSSGEFSSGRKWGDDAPKEEVDTG: the protein stability index stood at 5.62.

As for ESSGEFSSGRKWGDDAPKEEVDTG, the protein stability index was determined as 5.74.

With GSSGEFSSGRKWGDDAPKEEVDTG, the protein stability index amounted to 5.47.

For MSSGEFSSGRKWGDDAPKEEVDTG, the protein stability index was found to be 5.39.

QSSGEFSSGRKWGDDAPKEEVDTG: the protein stability index is 5.66.

Take PSSGEFSSGRKWGDDAPKEEVDTG: the protein stability index stood at 5.42.

As for RSSGEFSSGRKWGDDAPKEEVDTG, the protein stability index is 5.71.

In the case of SSSGEFSSGRKWGDDAPKEEVDTG, the protein stability index was 5.81.

For TSSGEFSSGRKWGDDAPKEEVDTG, the protein stability index is 5.12.

For ISSGEFSSGRKWGDDAPKEEVDTG, the protein stability index was determined as 5.55.

YSLGEFSSGRKWGDDAPKEEVDTG: the protein stability index was found to be 4.59.

For the variant YSHGEFSSGRKWGDDAPKEEVDTG, the protein stability index was 4.43.

YSTGEFSSGRKWGDDAPKEEVDTG: the protein stability index turned out to be 3.83.

As for YSYGEFSSGRKWGDDAPKEEVDTG, the protein stability index is 4.13.

With YSRGEFSSGRKWGDDAPKEEVDTG, the protein stability index came to 4.47.

Consider YSAGEFSSGRKWGDDAPKEEVDTG, for which the protein stability index was 4.89.

As for YSWGEFSSGRKWGDDAPKEEVDTG, the protein stability index was found to be 2.89.

Turning to YSIGEFSSGRKWGDDAPKEEVDTG, the protein stability index was found to be 4.01.

On to YSMGEFSSGRKWGDDAPKEEVDTG, for which the protein stability index was 3.91.

YSPGEFSSGRKWGDDAPKEEVDTG: the protein stability index came to 4.1.

For YSDGEFSSGRKWGDDAPKEEVDTG, the protein stability index came out at 5.15.

Consider YSCGEFSSGRKWGDDAPKEEVDTG, for which the protein stability index was 4.1.

On to YSQGEFSSGRKWGDDAPKEEVDTG, for which the protein stability index was determined as 3.86.

In the case of YSFGEFSSGRKWGDDAPKEEVDTG, the protein stability index was found to be 3.93.

On to YSVGEFSSGRKWGDDAPKEEVDTG, for which the protein stability index worked out at 4.77.

As to YSGGEFSSGRKWGDDAPKEEVDTG, the protein stability index turned out to be 3.5.

For YSNGEFSSGRKWGDDAPKEEVDTG, the protein stability index was 4.08.

Turning to YSEGEFSSGRKWGDDAPKEEVDTG, the protein stability index came to 5.22.

For the variant YSKGEFSSGRKWGDDAPKEEVDTG, the protein stability index came out at 4.51.

In the case of YDSGEFSSGRKWGDDAPKEEVDTG, the protein stability index is 5.77.

Consider YISGEFSSGRKWGDDAPKEEVDTG, for which the protein stability index stood at 2.42.

Consider YVSGEFSSGRKWGDDAPKEEVDTG, for which the protein stability index came to 1.59.

On to YNSGEFSSGRKWGDDAPKEEVDTG, for which the protein stability index was found to be 4.64.

As for YLSGEFSSGRKWGDDAPKEEVDTG, the protein stability index came to 3.48.

As for YCSGEFSSGRKWGDDAPKEEVDTG, the protein stability index was 2.04.

YRSGEFSSGRKWGDDAPKEEVDTG: the protein stability index is 5.05.

YHSGEFSSGRKWGDDAPKEEVDTG: the protein stability index stood at 1.48.

As to YESGEFSSGRKWGDDAPKEEVDTG, the protein stability index was determined as 5.4.

Consider YWSGEFSSGRKWGDDAPKEEVDTG, for which the protein stability index came to 3.81.

For YFSGEFSSGRKWGDDAPKEEVDTG, the protein stability index is 4.02.

Regarding YASGEFSSGRKWGDDAPKEEVDTG, the protein stability index is 2.28.

For the variant YMSGEFSSGRKWGDDAPKEEVDTG, the protein stability index was 3.97.

As to YKSGEFSSGRKWGDDAPKEEVDTG, the protein stability index is 5.2.

With YPSGEFSSGRKWGDDAPKEEVDTG, the protein stability index was 2.31.

Consider YQSGEFSSGRKWGDDAPKEEVDTG, for which the protein stability index was 2.48.

For the variant YYSGEFSSGRKWGDDAPKEEVDTG, the protein stability index is 4.92.

Consider YTSGEFSSGRKWGDDAPKEEVDTG, for which the protein stability index was found to be 2.67.

Take YGSGEFSSGRKWGDDAPKEEVDTG: the protein stability index is 1.95.

In the next data set the parent is B2. The data set is described as above. The note with it: c terminus: a fixed tail appended.
With CIQQILEAVLHCHQMGVVSRDLKP, the protein stability index came to 2.53.

For the variant CIQQILEAVLHCHQMGVVERDLKP, the protein stability index turned out to be 3.29.

CIQQILEAVLHCHQMGVVYRDLKP: the protein stability index is 2.79.

Consider CIQQILEAVLHCHQMGVVMRDLKP, for which the protein stability index amounted to 2.59.

As to CIQQILEAVLHCHQMGVVCRDLKP, the protein stability index worked out at 1.84.

As to CIQQILEAVLHCHQMGVVWRDLKP, the protein stability index amounted to 3.38.

For the variant CIQQILEAVLHCHQMGVVIRDLKP, the protein stability index stood at 2.01.

As to CIQQILEAVLHCHQMGVVKRDLKP, the protein stability index was determined as 2.34.

On to CIQQILEAVLHCHQMGVVFRDLKP, for which the protein stability index was determined as 3.5.

With CIQQILEAVLHCHQMGVVLRDLKP, the protein stability index turned out to be 1.9.

Consider CIQQILEAVLHCHQMGVVGRDLKP, for which the protein stability index is 3.33.

For CIQQILEAVLHCHQMGVVTRDLKP, the protein stability index amounted to 3.67.

For the variant CIQQILEAVLHCHQMGVVDRDLKP, the protein stability index turned out to be 2.72.

Consider CIQQILEAVLHCHQMGVVRRDLKP, for which the protein stability index turned out to be 2.92.

Consider CIQQILEAVLHCHQMGVGHRDLKP, for which the protein stability index came to 2.31.

Regarding CIQQILEAVLHCHQMGVIHRDLKP, the protein stability index turned out to be 2.

Regarding CIQQILEAVLHCHQMGVHHRDLKP, the protein stability index came to 3.82.

Turning to CIQQILEAVLHCHQMGVQHRDLKP, the protein stability index amounted to 3.46.

As to CIQQILEAVLHCHQMGVRHRDLKP, the protein stability index is 1.68.

With CIQQILEAVLHCHQMGVNHRDLKP, the protein stability index stood at 2.84.

As to CIQQILEAVLHCHQMGVEHRDLKP, the protein stability index worked out at 1.63.

As for CIQQILEAVLHCHQMGVAHRDLKP, the protein stability index turned out to be 2.83.

With CIQQILEAVLHCHQMGVCHRDLKP, the protein stability index is 2.28.

Consider CIQQILEAVLHCHQMGVFHRDLKP, for which the protein stability index was 1.78.

Consider CIQQILEAVLHCHQMGVKHRDLKP, for which the protein stability index was 2.97.

With CIQQILEAVLHCHQMGVYHRDLKP, the protein stability index was 2.35.

With CIQQILEAVLHCHQMGVPHRDLKP, the protein stability index worked out at 2.35.

With CIQQILEAVLHCHQMGVDHRDLKP, the protein stability index was found to be 2.78.

As to CIQQILEAVLHCHQMGVTHRDLKP, the protein stability index stood at 2.33.

Turning to CIQQILEAVLHCHQMGVSHRDLKP, the protein stability index came to 1.92.

Turning to CIQQILEAVLHCHQMPVVHRDLKP, the protein stability index is 2.69.

Turning to CIQQILEAVLHCHQMDVVHRDLKP, the protein stability index amounted to 2.41.

Consider CIQQILEAVLHCHQMRVVHRDLKP, for which the protein stability index worked out at 1.6.

As for CIQQILEAVLHCHQMIVVHRDLKP, the protein stability index was 2.24.

Regarding CIQQILEAVLHCHQMHVVHRDLKP, the protein stability index was found to be 2.16.

As for CIQQILEAVLHCHQMKVVHRDLKP, the protein stability index is 1.11.

The values above are taken from the supplement of paper PMC10567573.
